Experimental data taken from patent US11278600B2, “Human alpha-galactosidase variants” (Codexis, Inc., priority 2014, dated 2022).
Changes are numbered by the printed parent chain.

Assays:
Assay type in all cases: biochemical
[1] = HTP-analysis of supernatants pretreated with acid (MUGal hydrolysis); conditions: challenge at pH 4.2; activity of the variant/activity of WT GLA (SEQ ID NO: 5); yeast supernatant
Summary of the method: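 GLA variants were secreted from INVSc1 yeast grown 66-84 h at 30° C. in SD-Ura with 2% glucose; supernatants were mixed with McIlvaine buffer pH 3.3-4.3 and held at 37° C. for 1-3 h. Residual activity on MUGal at pH 4.8 was then measured by fluorescence.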

[2] = HTP-analysis of yeast culture supernatants, no challenge (MUGal hydrolysis); conditions: activity of the variant/activity of WT GLA (SEQ ID NO: 5), yeast supernatant
Summary of the method: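 Activity read as 4-methylumbelliferyl α-D-galactopyranoside hydrolysis: fluorescence (355/448 nm) after sodium carbonate stop, following 30-180 min at 37° C with 2 mM MUGal stock at pH 4.6–4.8. Enzyme source is unchallenged culture supernatant of INVSc1 yeast expressing GLA variants, grown 66-84 h at 30° C.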

[3] = HTP-analysis of supernatants pretreated with base (MUGal hydrolysis); conditions: challenge at pH 7.1; activity of the variant/activity of WT GLA (SEQ ID NO: 5); yeast supernatant
Summary of the method: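 GLA variants were secreted by transformed INVSc1 yeast grown 66-84 h at 30° C. Supernatants were exposed to neutral-to-basic buffers (pH 7.0-9.7) at 37° C for 1-18 h, then assayed with MUGal in acidic citrate/McIlvaine buffer, with fluorescence read after quenching.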

B1: 95 (protein)
chain: LDNGLARTPTMGWLHWERFMCNLDCQEEPDSCISEKLFMEMAELMVSEGWKDAGYEYLCIDDCWMAPQRDSEGRLQADPQRFPHGIRQLANYVHSKGLKLGIYADVGNKTCAGFPGSFGYYDIDAQTFADWGVDLLKFDGCYCDSLENLADGYKHMSAALNRTGRSIVYSCEWPLYMWPFQKPNYTEIRQYCNHWRNFADIDDSWKSIKSILDWTSFNQERIVDVAGPGGWNDPDMLVIGNFGLSWNQQVTQMALWAIMAAPLFMSNDLRHISPQAKALLQDKDVIAINQDPLGKQGYQLRQGDNFEVWERPLSGLAWAVAMINRQEIGGPRSYTIAVASLGKGVACNPACFITQLLPVKRKLGFYEWTSRLRSHINPTGTVLLQLENTMQMSKDLLL
modifications: Synthetic Polypeptide sequence of Variant No. 95 of mature Human GLA
[1]
  Relative Activity of GLA Variants After Challenge at pH 4.2: + (+ = 0.5 to 1.5 relative activity over WT GLA (SEQ ID NO: 5))
[2]
  Relative Activity of GLA Variants After No Challenge (NC): + (+ = 0.5 to 1.5 relative activity over WT GLA (SEQ ID NO: 5))
[3]
  Relative Activity of GLA Variants After Challenge at pH 7.1: + (+ = 0.5 to 1.5 relative activity over WT GLA (SEQ ID NO: 5))

B2: 104 (protein)
chain: B1 chain with A158L, L386V
modifications: Synthetic Polypeptide sequence of Variant No. 104 of mature Human GLA
[1]
  Relative Activity of GLA Variants After Challenge at pH 4.2: ++ (++ = >1.5 to 2.5 relative activity over WT GLA (SEQ ID NO: 5))
[2]
  Relative Activity of GLA Variants After No Challenge (NC): ++ (++ = >1.5 to 2.5 relative activity over WT GLA (SEQ ID NO: 5))
[3]
  Relative Activity of GLA Variants After Challenge at pH 7.1: ++ (++ = >1.5 to 2.5 relative activity over WT GLA (SEQ ID NO: 5))

B3: 105 (protein)
chain: B1 chain with A158L, K394A
modifications: Synthetic Polypeptide sequence of Variant No. 105 of mature Human GLA
[1]
  Relative Activity of GLA Variants After Challenge at pH 4.2: ++ (++ = >1.5 to 2.5 relative activity over WT GLA (SEQ ID NO: 5))
[2]
  Relative Activity of GLA Variants After No Challenge (NC): +++ (+++ = >2.5 relative activity over WT GLA (SEQ ID NO: 5))
[3]
  Relative Activity of GLA Variants After Challenge at pH 7.1: ++ (++ = >1.5 to 2.5 relative activity over WT GLA (SEQ ID NO: 5))

B4: 103 (protein)
chain: B1 chain with A158L, L384F
modifications: Synthetic Polypeptide sequence of Variant No. 103 of mature Human GLA
[1]
  Relative Activity of GLA Variants After Challenge at pH 4.2: ++ (++ = >1.5 to 2.5 relative activity over WT GLA (SEQ ID NO: 5))
[2]
  Relative Activity of GLA Variants After No Challenge (NC): ++ (++ = >1.5 to 2.5 relative activity over WT GLA (SEQ ID NO: 5))
[3]
  Relative Activity of GLA Variants After Challenge at pH 7.1: ++ (++ = >1.5 to 2.5 relative activity over WT GLA (SEQ ID NO: 5))

B5: 98 (protein)
chain: B1 chain with A158R
modifications: Synthetic Polypeptide sequence of Variant No. 98 of mature Human GLA
[1]
  Relative Activity of GLA Variants After Challenge at pH 4.2: + (+ = 0.5 to 1.5 relative activity over WT GLA (SEQ ID NO: 5))
[2]
  Relative Activity of GLA Variants After No Challenge (NC): + (+ = 0.5 to 1.5 relative activity over WT GLA (SEQ ID NO: 5))
[3]
  Relative Activity of GLA Variants After Challenge at pH 7.1: + (+ = 0.5 to 1.5 relative activity over WT GLA (SEQ ID NO: 5))

B6: 108 (protein)
chain: B1 chain with A158L, K394T
modifications: Synthetic Polypeptide sequence of Variant No. 108 of mature Human GLA
[1]
  Relative Activity of GLA Variants After Challenge at pH 4.2: +++ (+++ = >2.5 relative activity over WT GLA (SEQ ID NO: 5))
[2]
  Relative Activity of GLA Variants After No Challenge (NC): +++ (+++ = >2.5 relative activity over WT GLA (SEQ ID NO: 5))
[3]
  Relative Activity of GLA Variants After Challenge at pH 7.1: +++ (+++ = >2.5 relative activity over WT GLA (SEQ ID NO: 5))

B7: 99 (protein)
chain: B1 chain with L23M, A158L
modifications: Synthetic Polypeptide sequence of Variant No. 99 of mature Human GLA
[1]
  Relative Activity of GLA Variants After Challenge at pH 4.2: + (+ = 0.5 to 1.5 relative activity over WT GLA (SEQ ID NO: 5))
[2]
  Relative Activity of GLA Variants After No Challenge (NC): + (+ = 0.5 to 1.5 relative activity over WT GLA (SEQ ID NO: 5))
[3]
  Relative Activity of GLA Variants After Challenge at pH 7.1: + (+ = 0.5 to 1.5 relative activity over WT GLA (SEQ ID NO: 5))

B8: 97 (protein)
chain: B1 chain with A158M
modifications: Synthetic Polypeptide sequence of Variant No. 97 of mature Human GLA
[1]
  Relative Activity of GLA Variants After Challenge at pH 4.2: + (+ = 0.5 to 1.5 relative activity over WT GLA (SEQ ID NO: 5))
[2]
  Relative Activity of GLA Variants After No Challenge (NC): + (+ = 0.5 to 1.5 relative activity over WT GLA (SEQ ID NO: 5))
[3]
  Relative Activity of GLA Variants After Challenge at pH 7.1: + (+ = 0.5 to 1.5 relative activity over WT GLA (SEQ ID NO: 5))

B9: 33 (protein)
chain: B1 chain with A158L, A199H, E367S
modifications: Synthetic Polypeptide sequence of Variant No. 33 of mature Human GLA
[1]
  Relative Activity of GLA Variants After Challenge at pH 4.2: + (+ = 0.5 to 1.5 relative activity over WT GLA (SEQ ID NO: 5))
[2]
  Relative Activity of GLA Variants After No Challenge (NC): + (+ = 0.5 to 1.5 relative activity over WT GLA (SEQ ID NO: 5))
[3]
  Relative Activity of GLA Variants After Challenge at pH 7.1: + (+ = 0.5 to 1.5 relative activity over WT GLA (SEQ ID NO: 5))

B10: 102 (protein)
chain: B1 chain with A158L, L316E
modifications: Synthetic Polypeptide sequence of Variant No. 102 of mature Human GLA
[1]
  Relative Activity of GLA Variants After Challenge at pH 4.2: +++ (+++ = >2.5 relative activity over WT GLA (SEQ ID NO: 5))
[2]
  Relative Activity of GLA Variants After No Challenge (NC): +++ (+++ = >2.5 relative activity over WT GLA (SEQ ID NO: 5))
[3]
  Relative Activity of GLA Variants After Challenge at pH 7.1: +++ (+++ = >2.5 relative activity over WT GLA (SEQ ID NO: 5))

B11: 100 (protein)
chain: B1 chain with L23T, A158L
modifications: Synthetic Polypeptide sequence of Variant No. 100 of mature Human GLA
[1]
  Relative Activity of GLA Variants After Challenge at pH 4.2: + (+ = 0.5 to 1.5 relative activity over WT GLA (SEQ ID NO: 5))
[2]
  Relative Activity of GLA Variants After No Challenge (NC): + (+ = 0.5 to 1.5 relative activity over WT GLA (SEQ ID NO: 5))
[3]
  Relative Activity of GLA Variants After Challenge at pH 7.1: + (+ = 0.5 to 1.5 relative activity over WT GLA (SEQ ID NO: 5))

B12: 96 (protein)
chain: B1 chain with A158I
modifications: Synthetic Polypeptide sequence of Variant No. 96 of mature Human GLA
[1]
  Relative Activity of GLA Variants After Challenge at pH 4.2: + (+ = 0.5 to 1.5 relative activity over WT GLA (SEQ ID NO: 5))
[2]
  Relative Activity of GLA Variants After No Challenge (NC): + (+ = 0.5 to 1.5 relative activity over WT GLA (SEQ ID NO: 5))
[3]
  Relative Activity of GLA Variants After Challenge at pH 7.1: + (+ = 0.5 to 1.5 relative activity over WT GLA (SEQ ID NO: 5))

B13: 107 (protein)
chain: B1 chain with A158L, K394S
modifications: Synthetic Polypeptide sequence of Variant No. 107 of mature Human GLA
[1]
  Relative Activity of GLA Variants After Challenge at pH 4.2: +++ (+++ = >2.5 relative activity over WT GLA (SEQ ID NO: 5))
[2]
  Relative Activity of GLA Variants After No Challenge (NC): +++ (+++ = >2.5 relative activity over WT GLA (SEQ ID NO: 5))
[3]
  Relative Activity of GLA Variants After Challenge at pH 7.1: +++ (+++ = >2.5 relative activity over WT GLA (SEQ ID NO: 5))

B14: 101 (protein)
chain: B1 chain with A158L, L316D
modifications: Synthetic Polypeptide sequence of Variant No. 101 of mature Human GLA
[1]
  Relative Activity of GLA Variants After Challenge at pH 4.2: +++ (+++ = >2.5 relative activity over WT GLA (SEQ ID NO: 5))
[2]
  Relative Activity of GLA Variants After No Challenge (NC): +++ (+++ = >2.5 relative activity over WT GLA (SEQ ID NO: 5))
[3]
  Relative Activity of GLA Variants After Challenge at pH 7.1: +++ (+++ = >2.5 relative activity over WT GLA (SEQ ID NO: 5))

B15: 106 (protein)
chain: B1 chain with A158L, K394R
modifications: Synthetic Polypeptide sequence of Variant No. 106 of mature Human GLA
[1]
  Relative Activity of GLA Variants After Challenge at pH 4.2: ++ (++ = >1.5 to 2.5 relative activity over WT GLA (SEQ ID NO: 5))
[2]
  Relative Activity of GLA Variants After No Challenge (NC): ++ (++ = >1.5 to 2.5 relative activity over WT GLA (SEQ ID NO: 5))
[3]
  Relative Activity of GLA Variants After Challenge at pH 7.1: +++ (+++ = >2.5 relative activity over WT GLA (SEQ ID NO: 5))
